The term IC50 denotes the concentration that inhibits the measured activity by half. As a reminder, the koff is a measure of how fast the partners let go of each other. For orientation: Kd means the free concentration of one partner at which half of the binding sites on the other are occupied at equilibrium, for simple one-to-one binding. In general, kon refers to the rate constant with which the complex forms.

The values below come from patent publication US20220267440A1 (ABSOS, published 2022).

For test [1], the target named is T1, human CD47 extracellular domain with a histidine- (HIS-) tag (Sino Biological, China) (human, UniProt Q08722 19-139).
T1 construct: extracellular domain; also called huCD47; huCD47 protein (Sino Biological, China 10161-H08H); not shown: histidine tag
Description: competition ELISA on huCD47 after 35A.

Test [2] addresses T2, recombinant CD47-Fc (Sino Biologics) (human, UniProt Q08722 19-139).
T2 construct: Bought reagent; also called human CD47-Fc; not shown: Fc
Description: competition ELISA: HIS-tagged SIRP α binding to plate-bound CD47-Fc, antibody titrated.

Test [3] deals with T1, human CD47 extracellular domain with a …. The test can be described thus: competition ELISA on huCD47 after 141A. Background: In an ELISA, binding on a coated surface is turned into a signal by an enzyme label.
Description: (§1) A competition ELISA was performed to establish competitive binding bins. […] After washing, wells were incubated with an AlivaMab monoclonal antibody representing one of seven unique competition bins. After 1 hour the wells were washed and incubated with individual clonal anti-huCD47 AlivaMab hybridoma supernatants. […] Individual AlivaMab Mouse antibodies that were unable to bind in the presence of a mouse antibody are considered to be in the same epitope bin as that particular mouse antibody.
Test [4] has the same target. The test can be described thus: competition ELISA on huCD47 after 1A.
Description: as §1
The target is the same in test [5]. Description: competition ELISA on huCD47 after 156A.
Description: as §1
For test [6] the target is unchanged. The test can be described thus: competition ELISA on huCD47 after 10A.
Description: as §1
For test [7] the target is unchanged. The test can be described thus: competition ELISA on huCD47 after 27A.
Description: as §1
Test [8] shares this target. The test can be described thus: competition ELISA on huCD47, row G1 Alone.
Description: as §1
The target of test [9] is T3, recombinant human CD47 (Novoprotein cat no. C321, lot no. 0329689) (human, UniProt Q08722 19-139).
T3 construct: Bought reagent
The test can be described thus: SPR, antibodies binned by kd at 25 C (value is the column's head).
Description: (§2) Binding kinetics were measured at 25° C. using a BioRad ProteOn XPR36 optical biosensor equipped with GLM sensor chips and equilibrated with running buffer (HBS, 0.005% TWEEN-20, 0.1 mg/mL BSA, pH 7.4).
(§3) CD47 was tested in a three-fold dilution series starting at 100 nM.

The target of test [10] is T3, recombinant human CD47 (Novoprotein cat …). The test can be described thus: SPR (ProteOn XPR36), mAb captured on anti-mouse Fc, CD47 as analyte, 25 C, 1:1 model.
Description: as §2, §3
The target is the same in test [11]. Description: SPR summary table, 25 C.
Description: as §2, §3
Test [12] shares this target. Description: SPR (ProteOn XPR36), mAb captured on anti-mouse Fc, CD47 as analyte, 25 C; kd fixed, KD a rough estimate.
Description: (§4) Affinity was determined for five selected AlivaMab Mouse monoclonal hybridoma supernatants (Biosensor Tools, Salt Lake City, Utah). Binding kinetics were measured at 25° C. using a BioRad ProteOn XPR36 optical biosensor equipped with GLM sensor chips and equilibrated with running buffer (HBS, 0.005% TWEEN-20, 0.1 mg/mL BSA, pH 7.4).
as §3
For test [13] the target is unchanged. Description: SPR summary table, 25 C; kd fixed.
Description: as §4, §3
The target is the same in test [14]. The test can be described thus: SPR summary table, 25 C; dissociation rate constant fixed at 1e-5 s^-1; summary table; kd fixed at 1e-5.
Description: as §4, §3
Test [15] shares this target. The test can be described thus: SPR (ProteOn XPR36), mAb captured on anti-mouse Fc, CD47 as analyte, 25 C; no decay detected, kd fixed at 1e-5 in the fit; no decay seen; kd fixed at 1e-5 in the fit.
Description: as §4, §3

B1: anti-CD47 AlivaMab antibody 164 (antibody, IgG1, V domains shown)
VH: QVQLQESGPGLVKPSETLSLTCTVSGGSISSYYWSWIRQPPGKGLEWIGYVYYSGGTNYNPSLKSRVTISVDTSKNQFSLKLSSVTAADTAVYYCARKRGTFDYWGQGTLVTVSS
VL: DIQMTQSPSSVSASVGDRVTITCRASQGISSWLAWYQQKPGKAPKLLIYAASSLQSGVPSRFSGSGSGTDFTLTISSLQPEDFATYFCQQANSFPLTFGGGTKVEIK
notes: Chimeric AlivaMab Mouse mAb from hybridoma: human V, CH1 and upper hinge, mouse middle hinge, CH2 and CH3, human kappa light chain; also called clone 164; mAb 164
On to B1, for which the “competition matrix cell (no name or unit printed)” value in test [1] amounted to 117; in test [3] it was 100; in test [4] it was 103; in test [5] it was 120; in [6], 97; in [7], 108. For the same molecule, the “competition matrix cell (no name or unit printed)” value in test [8] worked out at 100. Also, in test [2], the IC50 amounted to 4.8 nM.

B2: anti-CD47 AlivaMab antibody 151 (antibody, IgG1, V domains shown)
VH: QVQLQESGPGLVKPSETLSLTCTVSGGSISSYYWSWIRQPPGKGLEWIGYIYYSGSTNYNPSLKSRVTISVDTSKNQFSLKLSSVTAADTAVYYCARKRKYFDYWGQGTLVTVSS
VL: DIQMTQSPSSLSASVGDRVTITCRASQGISNYLAWYQQKPGKVPKLLIYAASTLQSGVPSRFSGSGSGTDFTLTISSLQPEDVATYYCQKCNSAPFTFGPGTKVDIK
notes: Chimeric AlivaMab Mouse mAb from hybridoma: human V, CH1 and upper hinge, mouse middle hinge, CH2 and CH3, human kappa light chain; also called clone 151; mAb 151
Regarding B2, the koff in test [9] is approximately 0.01 s⁻¹. For the same molecule, in test [10], the Kd worked out at 1 nM, the koff stood at 0.0089 s⁻¹ and the kon was 8.7e+06 M⁻¹ s⁻¹. For the same molecule, in test [11], the Kd is 1 nM, the koff amounted to 0.0089 s⁻¹ and the kon stood at 8.7e+06 M⁻¹ s⁻¹. In [2], the IC50 amounted to 2 nM.

B3: anti-CD47 AlivaMab antibody 139 (antibody, IgG1, V domains shown)
VH: QVQLQESGPGLVKPSETLSLTCTVSGGSISNYYWSWIRQPPGKGLEWIGYIYYSGSTNYNPSLKSRVTISVDTSKNQFSLKLSSVTAADTAVYYCARSRYFDLWGRGTLVTVSS
VL: DIQMTQSPSAMSASVGDRVTITCRASQGISIYLAWFQQKPGKVPKRLIYAASSLQSGVPSRFSGSGSGTEFTLTISSLQPEDFATYYCLQHTSYPYTFGQGTKLEIK
notes: Chimeric AlivaMab Mouse mAb from hybridoma: human V, CH1 and upper hinge, mouse middle hinge, CH2 and CH3, human kappa light chain
Consider B3, for which the koff in test [9], in test [14] and in test [15] was not above 1e-05 s⁻¹ in each case. Further, the kon in test [10] and in test [11] was 1.18e+06 M⁻¹ s⁻¹ throughout. The figures for the dissociation constant (Kd) in test [12] and in test [13] were not above 0.0085 nM and approximately 0.009 nM, respectively. In addition, the IC50 in [2] came to 2.2 nM.
